According to the DeepSol protein solubility set:

Assay: soluble on expression in E. coli; label from the status in PepcDB or PDB records

Sequence	soluble on expression in E. coli
MGSDKIHHHHHHMTQLLTKIRRKKIHKGLLLYRLFQQLPVQKNLVLFESFLGRGYSDNPKALYLTLQKQRPELELVWIFAKEPNAAVKAACPNWVLRNSPKYYYLMARAQYWIFNTRQPLSLKKRRETMYLQTWHGTPLKRLGLDMDEVHMPGTNTEQYKKNFSAQAKEWNYLLSPNLYSSAIFKRAFDFRGLLLETGYPRNDLLYAPDRQQQAGQIKQSLRLPPGKKVILYAPTWRDDEFVTKGQYRFNLKLDLKQIQSRLGDDYIVLLRMHYLIAEHLDLTAFDGFAYDVSAYGDIAELYLISDLLITDYSSVFFDYAHLNRPMLFFTYDLEKYASILRGFYFDFEAVVPGPLLKESDQVIDYIEDIATQSKQYEEKYTAFQERFCSLDDGKASQRVVDALFK	not soluble
KVNMDLRANLKQVKKEDTEKEKDLRDVGDWRKNIEEKSGMEGRKKMFEAGES	soluble
MSLAERLEIMVPSGSYVSFMRNTVTPEFNKLYPEVNLVVSNDEQLDTRMAAGDNPNVYIGVFGYQPAKLAKLGKLAYLDKFPGFAELNERIDPHFLRENFGRTYYIPWNATTQMMIYNKELFAEAGLDPERPPATWDEFLLAAEKISALPPRSDGSKVYGTVFWNDVLSFGSWYWNLLTPMYYNVNQGQYQLLNRYGTDIVFDRPDANMAQFMRTMQQAQRFAPLTMEKSFFSRNIGMWLQFGFGWKATLSSAAERPMVVGQDVAIAPIPVQTKGDIHYSVLDGRAIMIFKDEARKEQLSWALLNLLMRDDINLQANIALGQLPTLKALQDAPYFQSAEAQPFVQQLQHAILSEPFANAMEVANIILANYSKVVLKGEISPEQAVATSAQAARQLLNEHEGHHHHHH	soluble
MVGHKYPVKCLEVDKSKGRLVVSHRRAMAERQMEHLKTGALVEGTVQGVKPYGVFVDVFGTSGLLHISQISHDQVANIQSLFLPGEKVKCMVVSFDKQRGRISLSTKALEPHPGDMLRNKQLVYEKAEEMALSYNQRMDSPVRSKNTTSSSTDDIIAGLDIGSLDDLDPILFGTHTNSSNSNTHSDHLKQDSMNGTIPESDI	not soluble
KSITIQTPYLIPDQPIYESLTIALAAGVKVNIFIPDRPDHPFVYRATQYYAQEFIDFGANVYRYDGGFLHSKLLIIDDEIVSIGSANMDIRSFELSFEANAFIYSSYFAKKIEKQISIDISKSKLLSKKDFETQ	not soluble
MDQFECINVADAHQKLQEKEAVLVDIRDPQSFAMGHAVQAFHLTNDTLGAFMRDNDFDTPVMVMCYHGNSSKGAAQYLLQQGYDVVYSIDGGFEAWQRQFPAEVAYGA	soluble
MGQSFSSSFNAKQTSSSTPQKSTKTPTCSDPRSPSQDIERTPIQVKTVENDENGSSESSTTKADKPRKTSLRQKMFARKKNMNSETDE	not soluble
SHMSKAKFDKAVEIVQSLPKDGPIKPTQDEQLYFYKYFKQATVGDVNISRPGLMDFTGKAKWDAWKSVEGTSKEVAYQKYVEKLLEILKKADTEESKKYIAEIEAA	soluble
MGSDKIHHHHHHMINYMIPKGFLCCGKHVGIKKRKLDLGVVYSEKLCSAAAVFTKNKFCGIPIIVGKENIKDNKLQSIVVTSGVANVATGEEGLKNTYRILNKLSCELNIKSENILPSSTGIIGKQLPIDCIITGINGIKSSLSKYNWEEFNRAIMTTDKELKIKSCKIGDATVLGIAKGSGMIEPNMATMLAYFFTDASIKAVELKGILKRAVDKSFNMISIDHDTSTSDTAAILANGYVGNVNLEVFEKTFTDMCIDMAKDIVRDGEGVSKLIEATVMGCSSFESAKVIAKSIINSPLVKIAIYGSDPNWGRIAMAIGKSFEDDVDPLKIEIAFNSNVIYDKGKIYEENFDCIERYLRDNNECKIQANLNVGDFAATVWGSDFTEDYIRINSYYTKRK	not soluble
MAELISKEGNKVEFKVSVPAAEVNRAYDQVWAGLARDVRVPGFRPGKAPRKVIENRVGKGYVESQVRDRLLETHYSQGLRELGLNLVDATVDPQDVQSGQAFEFTVKGETYP	soluble
MGSDKIHHHHHHMRILLIHQNFPGQFKHLAPALVANGHEVRTLTLRQDLPDQWQGVTVHRYRAQRNSSPTVHPWVGDFETKVIRGEACFRAALQLRNQGYQPDLILAHPGWGETLFLQDVWPAAKLAIYCEFYYRSAGSDVDFDPEFQRPQGEEDTACRLQLKNLIYTMQGDRVTAGIAPTHWQADQFPEPLRSKITVVHDGIDTEAIAPNPSATITLNNQLKLGRNDEVITFVNRNLEPYRGYHIFMRSLPEILQQRPKARVILVGGDDVSYGARPPAGTWKQIFLKEVADRLDLSRVHFVGKIPYNAFLSLLQVSSVHVYLTYPFVLSWSLIEAMSCGCAIVASDTAPVREVISDGETGRLVNFFDPAGLAATVSELLASPSARAKLGKKARLFAQNHYDLQRVCLPQQMQWVRSLA	not soluble
GITPKYTATAKVYMVSASKNSVVDLADLSIGTSLSEDYAELLHVRPIIEAINEENDLGYTYEQLNGMIDISTVEDTRILKISATSIKPEEAKTIANALAEKAVTEIPKLMGTSSPNIAERAITPKGKSSPSLKKN	soluble
MAHHHHHHMSSPAWSVYEGDWGSFCDDADNVPPTLSLKGCGLRQKCLLQRGAQGAVYLGEDADGNVFVVKRLFTQRSEFGVRGVSEGSLREATLLTYITERSKTLGPEPLFGVIRLERIVEAPFQELSLILERCAFNLSRMVFYSRKRAYSAAGLFPETPTRCPILAKMNVIQYLMRGILKILQFLHEECHIIHRDVKLGNLLVGEDGRVRLADFGSARFMHEPVEKMSDARSGEYTPISLRTTVIYQAPECLLGERSYTAAVDMWAAGVVFAELLLQQHLFHSCSELGMLSDIWKLLGTPSDDPSVCSGEGAVTYAVRTESTIERKFPERIVSAEGLDLLKRMLETNPKKRITDSEALRHPFLCGPAVESGMEEARRLWNKKVEACMQETVAQPAAMGMRSFYVDNVEFDEESGENDDDDGEIATLPTCLDCFPHILSDVNGRHDI	not soluble
MTYAVEFDNVSRLYGDVRAVDGVSIAIKDGEFFSMLGPSGSGKTTCLRLIAGFEQLSGGAISIFGKPASNLPPWERDVNTVFQDYALFPHMSILDNVAYGLMVKGVNKKQRHAMAQEALEKVALGFVHQRKPSQLSGGQRQRVAIARALVNEPRVLLLDEPLGALDLKLREQMQLELKKLQQSLGITFIFVTHDQGEALSMSDRVAVFNNGRIEQVDSPRDLYMRPRTPFVAGFVGTSNVFDGLMAEKLCGMTGSFALRPEHIRLNTPGELQANGTIQAVQYQGAATRFELKLNGGEKLLVSQANMTGEELPATLTPGQQVMVSWSRDVMVPLVEER	not soluble
MGSDKIHHHHHHMRLPPIDLSRENTFGEISYESGGQYGPIRGDYLAFIIVHLGTLKIEADETVLQLEAGHCALSLTRDSYLTTIAPETLTHISWCDGRPLNAAWLYKERHKYAPFINASTQVQTLMQLGVDLGIGDRDGRGGLREALTNTLLNAYIYEAEVVAEERPIPQTILQARRFLDENFAADVSIERVAQQVRVSPQYLVSAFKKHLGMTPARYLWRCRLDYGAHLLQRSGLSVSEIAYQVGYKNPYHFSRQIKLAFDCSPTELREKMLNG	not soluble
MGHHHHHHSHMKQVAVISGKGGTGKTTFSATIHALEGGVVADCDVDAPNLHILLKPQILKAEDFIASKKARIMPEKCSSCGLCYDLCRFGAVVAEDGYYVDEKKCEGCAFCFNVCPERAIEMENVKTGDLYVSKTEWGYFVHARLKPGEENTGRLVTEVKNRAKEIAEESNAEFLIVDSAPGVGCPVMASLTGVDAAIIVTEPTVSGLSDMLRILELCEHFRIRPFVVVNKFDLNVNIASEIESYCSENGVEFAGRVPFDKAIPEQIANLNFPFSGKAADKMVEIWKKLRE	not soluble
MGSDKIHHHHHHSQRQMDIIGNNLANSSTLGYKSADTQFANMLSQSLTSGSGSFQVGQGVAISSVNTKFDQGSFESTGSVTDMAIDGEGFFPVKDKEGAIYYTRAGAFVIDKDGYLVDVNGYRVQGINLFSAPGDAELTDICLKNIQSAPSATKTFGIGVNLNDSEDAGTSFVVSQNVFDSKGAIHNLSLTFTKTEGDGYWGCQAKLDNVETINSSCCGIKFDESGNLKNTYLTSCSAGAVSGGGAITSTTVNKPGQLYLNGTIACTRGADADTWTISSSEYPNLEFSLGDLGNDDEIAIDLDGKGGTDITLALGAGFADLSSFDLTISQVESNAADVTFEFPGLANGADIGSGNALTWNLIGDDALQVTGYAATSVIKALEVDGYTSGVLKSLSVEKDGIISGIFTNGQTSDLGQVVLANFPNVGALRKIGSYFAETNFSGAAIINSPGTGGLGEIMSNSLEQSNTDVSMEFVNMINAQRAYQASARIITTSDEMLTELMNIKR	not soluble
MNLAGSTIQAYRQRKIESLAKMSNMSQDDVTTGLRTVQQGLEALREEHSTISNTLETSVKGVKEDEAPLPKQKLSQINDNLDKLVCGVDETSLMLMVFQLTQGMDAQHQKYQAQRRRLCQENAWLRDELSSTQIKLQQSEQMVAQLEEENKHLKYMASIKQFDDGTQSDTKTSVDVGPQPVTNETLQELGFGPEDEEDMNASQFNQPTPANQMAASANVGYEIPARLRTLHNLVIQYASQGRYEVAVPLCKQALEDLEKTSGHDHPDVATMLNILALVYRDQNKYKEAANLLNEALSIREKCLGESHPAVAATLNNLAVLFGKRGKFKDAEPLCKRALEIREKVLGDDHPDVAKQLNNLALLCQNQGKYEEVEKYYKRALEIYESKLGPDDPNVAKTKNNLSSAYLKQGKYKEAEELYKQILTRAHEREFGQISGENKPIWQIAEEREENKHKGEGATANEQAGWAKAAKVDSPTVTTTLKNLGALYRRQGKYEAAETLEDVALRAKKQMSESRRMERSVMY	not soluble
RSTIGAGQKVNVEFVSANPTGPMHVGHVRGAVVGDALARLLAYAGWNVTREYYINDGGAQVDVLARSAFERYREAHGLEPEIREGLYPGDYLIPVGEALKAKYGDSLLDKGEQHWLTEVREFATEMMMQMIREDLAALGVEMDVYSSEKALYGTGKIEAALDRLKEMDLIYEGVLEPPKGKTPEDWEPREQTLFRSTAHGDDVDRPVKKSDGSWTYFAPDIAYHYDKVTRGFDQLIDIFGADHGGYVKRMKAAVAALSAGRVPLDIKLIQLVKLWKNGEPFKMSKRAGTYVTLRDVVEQVGTDVTRFVMLTRKNDATLDFDFDKVLEQSKENPVFYVQYANARINSVLRKAREQGMDVSDA	not soluble
MGSDKIHHHHHHMKEIVTVGVDIAKNVFQVHGVDAQGVVVVRRKLRRSKVSGFFESLPPCLIGIEACATAHHWARHLMALGHEVKLMPAAYVKPYVKRQKNDAADAEGICEAVQRPTMRFVPVKSKEQQGVLMLHRARELLVRQRTMLINALRAHLAELGIATRLGPMGVKDAVAVIEGIDQHLIPEIVQHALSPLCDQLRHVHTKIEEMDRQILEWHRSSALSQRLATIPGIGPVTASAIAATITDVSSFRSGRQLAAWIGLVPRQSSSGGKERLGRITRQGDPYIRRLLVIGAAL	not soluble
MGSDKIHHHHHHMKTIMYLHAGAEMYGSDKVLLQLVTGLDKKQFKPIVVLPEHGPLEKALETNDIQTEVVAYPILRRKYFNPKGIFNYASGYFKAEKVLANLAIKYHVDLIHVNTLAVLEGITLKKRIKKPLIWHVHEILLSPKFMWKLTAYLSAKYADKIVVVSNATGEHLKKAGYAKENQIVTIYNGINIPKGLENSDFRQEFDIPKNAFVFGHVGRINAWKGQEDFLKASLKLMSNYSKVHVLFSGNAYKGEEWREEKLKKEINESGFSDRIHYLGFQHEIRKVFNTMNVFVSSSIRPDPFPMVTLEAMANSKPIVSYDHGGPSELIVNAKTGYLVQPHNIDDLSLKMSMLINPKLESKFGVVGRKRVLSEFSETKFLQNFSFLYGDM	not soluble
